Test [1] has as its target T1, human TLR2 endogenously expressed on cells (THP1-xBlue cells; normal human peripheral blood mononuclear cells) (human, UniProt O60603 21-784). In words: cell-based or functional assay.
Test [2] has as its target T2, human TLR2 protein (R&D Systems, 2616-TR-050) (human, UniProt O60603 21-590, limits assumed).
T2 construct: Bought recombinant protein
The test is described as follows: SPR (Biacore T200), human TLR2 protein captured by anti-His IgG on CM5 chip, antibody at 200 nM as analyte, bivalent analyte model. How it is done:
To evaluate a binding activity of the fully human 31-5F5-2F3.m1 prepared in Example 4 for human TLR2, an SPR analysis was carried out.
In the SPR analysis, Biacore T200 (GE Healthcare Japan) was used to carry out analysis. An Anti-His IgG (enclosed in His Capture Kit) was immobilized on a sensor chip CM5 (GE Healthcare Japan, BR-1005-30) using a His Capture Kit (GE Healthcare Japan, 28-9950-56) and Amine Coupling Kit (GE Healthcare Japan, BR-1000-50). Flow path No. 1 is referred to as a reference, onto which the human TLR2 protein was not attached. Onto each of other flow paths (No. 2, No. 3, and No. 4), a human TLR2 protein (R&D Systems, 2616-TR-050) diluted to 0.66 μg/mL in HBS-EP+ buffer (GE Healthcare Japan, BR-1006-69) was added at a flow rate of 5 μL/minute for 2 minutes and then immobilized. Thereafter, a solution of fully human 31-5F5-2F3.m1 diluted to 200 nM in HBS-EP+buffer was added at a flow rate of 50 μL/minute for 2 minutes, and the fully human antibody-human TLR2 binding was measured. Next, HBS-EP+buffer was added at a flow rate of 50 μL/minute for 5 minutes and the dissociation of the fully human antibody and human TLR2 was measured. Bivalent analyte model and the Rmax were analyzed by Fit local to calculate the association rate constant (ka) and dissociation rate constant (kd), and the association-dissociation constant (KD) was calculated by dividing kd by ka.
Background: In SPR one partner is held on a chip, and binding of the other changes the refractive index at the surface.

The target of test [3] is human TLR4/MD2 endogenously expressed on normal human peripheral blood mononuclear cells (human, UniProt O00206 24-839; Q9Y6Y9 19-160). In words: cell-based or functional assay.
The target of test [4] is T1, human TLR2 endogenously expressed on …. The test is described as follows: cell-based or functional assay. This is another data set of the same source.
The target in test [5] is T2, human TLR2 protein (R&D Systems, …). The test is described as follows: ELISA, human TLR2 protein immobilized on plate, detection with anti-human IgG-HRP. How it is done:
(§1) In order to evaluate the binding activity of each of two bispecific antibodies prepared in Example 8 for human TLR2 and human TLR4, ELISA was carried out using a human TLR2 protein and a human TLR4/MD2 protein. 15 μL/well of a human TLR2 protein (R&D Systems, 2616-TR-050) diluted to a concentration of 10 μg/mL in PBS (Life Technologies, 10010-023) was added to a MaxiSorp 384-well plate Clear (Thermo Fisher Scientific Inc.), followed by immobilization at room temperature for 1 hour. Similarly, 15 μL/well of a human TLR4/MD2 protein (R&D Systems, 3146-TM/CF) was added at 10 μg/mL, followed by immobilization at room temperature for 1 hour. After 1 hour, the wells were washed three times with a washing solution (0.05% Tween-20-containing Tris-buffered saline (TBS)), and 100 μL/well of Blocking One (NACALAI TESQUE, INC., 03953-95) was added, followed by blocking at room temperature for 1 hour. The wells were washed again three times with a washing solution, 15 μL/well of two bispecific antibodies prepared in Example 8 was added to the well on which the human TLR2 protein was immobilized and the well on which the human TLR4/MD2 protein was immobilized. […] An absorbance at 450 nm was measured by using Safire2 (TECAN), and an EC50 value of each antibody for the human TLR2 protein and the human TLR4/MD2 protein was calculated.
On the technique in general: ELISA stands for enzyme-linked immunosorbent assay.

In test [6] the target is T3, human TLR4/MD2 protein (R&D Systems, 3146-TM/CF) (human, UniProt O00206 24-631; Q9Y6Y9 17-160, limits assumed).
T3 construct: Bought recombinant complex; also called human TLR4 and MD2 complex
The test is described as follows: ELISA, human TLR4/MD2 protein immobilized on plate, detection with anti-human IgG-HRP. How it is done: as §1

“And” between values parts separate entries of the source, which are not always exact repeats. Equal values may be shown once.

T2 sequence (O60603 21-590 limits assumed): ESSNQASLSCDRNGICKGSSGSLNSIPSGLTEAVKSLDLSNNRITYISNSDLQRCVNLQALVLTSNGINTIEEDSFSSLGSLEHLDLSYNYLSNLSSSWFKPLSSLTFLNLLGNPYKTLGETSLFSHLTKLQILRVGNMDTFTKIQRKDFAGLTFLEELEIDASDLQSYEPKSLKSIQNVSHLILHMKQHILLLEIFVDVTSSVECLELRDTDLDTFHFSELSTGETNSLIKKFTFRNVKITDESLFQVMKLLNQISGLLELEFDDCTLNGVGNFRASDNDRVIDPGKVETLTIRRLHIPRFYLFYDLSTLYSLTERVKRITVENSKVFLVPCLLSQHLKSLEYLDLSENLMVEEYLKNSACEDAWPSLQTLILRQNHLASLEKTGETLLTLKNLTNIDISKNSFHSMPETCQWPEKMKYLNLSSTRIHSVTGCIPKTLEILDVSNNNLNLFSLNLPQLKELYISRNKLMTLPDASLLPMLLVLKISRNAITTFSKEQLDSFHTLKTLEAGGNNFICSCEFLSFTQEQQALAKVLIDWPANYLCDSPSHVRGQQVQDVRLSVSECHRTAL
T1 sequence (O60603 21-784): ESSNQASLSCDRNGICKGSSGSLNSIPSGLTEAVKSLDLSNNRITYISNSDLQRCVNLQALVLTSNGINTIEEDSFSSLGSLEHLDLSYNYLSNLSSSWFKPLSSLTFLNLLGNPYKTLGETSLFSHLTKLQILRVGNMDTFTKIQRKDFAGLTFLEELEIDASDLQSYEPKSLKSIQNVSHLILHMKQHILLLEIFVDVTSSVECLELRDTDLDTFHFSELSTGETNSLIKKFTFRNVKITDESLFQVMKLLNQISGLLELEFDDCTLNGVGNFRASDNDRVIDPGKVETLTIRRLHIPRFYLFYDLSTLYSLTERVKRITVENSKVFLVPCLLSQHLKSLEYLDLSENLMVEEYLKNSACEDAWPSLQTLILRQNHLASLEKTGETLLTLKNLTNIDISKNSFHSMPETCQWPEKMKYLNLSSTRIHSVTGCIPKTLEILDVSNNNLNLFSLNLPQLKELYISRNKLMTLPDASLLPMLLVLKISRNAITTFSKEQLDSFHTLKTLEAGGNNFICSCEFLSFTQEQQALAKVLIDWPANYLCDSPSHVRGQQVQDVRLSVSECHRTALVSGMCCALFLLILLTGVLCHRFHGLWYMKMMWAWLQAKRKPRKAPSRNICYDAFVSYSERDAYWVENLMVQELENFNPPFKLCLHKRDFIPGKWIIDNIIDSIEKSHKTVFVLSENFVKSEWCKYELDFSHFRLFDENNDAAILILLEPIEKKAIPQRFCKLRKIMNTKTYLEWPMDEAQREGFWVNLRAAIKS
T3 sequence (O00206 24-631 limits assumed, chain 1 of 2): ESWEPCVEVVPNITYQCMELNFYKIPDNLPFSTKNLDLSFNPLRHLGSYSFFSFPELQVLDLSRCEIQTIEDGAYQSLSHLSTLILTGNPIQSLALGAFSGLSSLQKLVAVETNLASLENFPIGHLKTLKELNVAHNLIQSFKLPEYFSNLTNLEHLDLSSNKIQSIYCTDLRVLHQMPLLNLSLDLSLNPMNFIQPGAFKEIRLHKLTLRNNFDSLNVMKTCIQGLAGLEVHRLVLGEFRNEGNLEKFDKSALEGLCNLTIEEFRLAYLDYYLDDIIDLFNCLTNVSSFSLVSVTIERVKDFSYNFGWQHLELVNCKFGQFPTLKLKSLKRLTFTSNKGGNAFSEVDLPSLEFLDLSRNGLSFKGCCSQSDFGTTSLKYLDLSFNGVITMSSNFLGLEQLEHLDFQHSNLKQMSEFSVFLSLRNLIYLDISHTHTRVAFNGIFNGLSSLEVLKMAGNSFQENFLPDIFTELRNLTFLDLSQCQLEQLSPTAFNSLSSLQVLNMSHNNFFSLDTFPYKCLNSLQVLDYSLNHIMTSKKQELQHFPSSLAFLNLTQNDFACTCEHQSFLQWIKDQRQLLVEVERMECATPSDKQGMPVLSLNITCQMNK
T3 sequence (Q9Y6Y9 17-160 limits assumed, chain 2 of 2): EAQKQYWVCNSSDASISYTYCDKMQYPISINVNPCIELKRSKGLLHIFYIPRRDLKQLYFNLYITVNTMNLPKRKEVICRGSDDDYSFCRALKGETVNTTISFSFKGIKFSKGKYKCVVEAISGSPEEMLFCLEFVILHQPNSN
Chain of human TLR4/MD2 endogenously expressed on normal human peripheral blood mononuclear cells (O00206 24-839, chain 1 of 2): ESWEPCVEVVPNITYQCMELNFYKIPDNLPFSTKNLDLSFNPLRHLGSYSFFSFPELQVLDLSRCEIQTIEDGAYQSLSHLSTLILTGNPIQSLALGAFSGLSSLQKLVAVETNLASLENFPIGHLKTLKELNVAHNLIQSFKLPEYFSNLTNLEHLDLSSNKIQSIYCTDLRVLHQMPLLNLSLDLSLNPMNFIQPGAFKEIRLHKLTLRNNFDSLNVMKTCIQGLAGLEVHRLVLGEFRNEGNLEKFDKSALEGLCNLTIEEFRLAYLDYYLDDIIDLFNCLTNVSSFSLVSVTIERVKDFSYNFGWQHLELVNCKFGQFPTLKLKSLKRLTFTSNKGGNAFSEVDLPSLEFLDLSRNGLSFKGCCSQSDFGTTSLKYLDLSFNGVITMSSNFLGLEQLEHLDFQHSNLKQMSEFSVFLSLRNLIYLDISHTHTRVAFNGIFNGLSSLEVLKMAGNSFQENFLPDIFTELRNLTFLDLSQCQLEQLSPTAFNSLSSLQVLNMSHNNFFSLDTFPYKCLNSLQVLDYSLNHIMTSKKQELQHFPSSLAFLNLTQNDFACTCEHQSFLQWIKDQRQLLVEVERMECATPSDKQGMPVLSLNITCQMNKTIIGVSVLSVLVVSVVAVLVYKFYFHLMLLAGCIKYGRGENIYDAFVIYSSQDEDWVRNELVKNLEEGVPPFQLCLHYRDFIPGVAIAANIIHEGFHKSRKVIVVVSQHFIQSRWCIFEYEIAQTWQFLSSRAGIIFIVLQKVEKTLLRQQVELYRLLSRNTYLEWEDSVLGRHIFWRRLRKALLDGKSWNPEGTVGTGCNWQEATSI
Chain of human TLR4/MD2 endogenously expressed on normal human peripheral blood mononuclear cells (Q9Y6Y9 19-160, chain 2 of 2): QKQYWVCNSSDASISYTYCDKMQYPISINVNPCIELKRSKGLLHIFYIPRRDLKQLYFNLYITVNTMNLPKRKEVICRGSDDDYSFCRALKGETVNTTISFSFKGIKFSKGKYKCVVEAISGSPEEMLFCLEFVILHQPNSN

B1: fully human 31-5F5-2F3.m1 (antibody, human IgG1, kappa, V domains shown)
VH: EVQLVESGGGLVQPGGSLRLSCAASGFTFSNYAMSWVRQAPGKGLEWVAAIYGRGGYTNYADSVKGRFTISRDNSKNTLYLQMNSLRAEDTAVYYCAKEGGGYRDYFDYWGQGTLVTVSS
VL: DVQMTQSPSSLSASVGDRVTITCRSSQSLVFSDGNTYLNWFQQKPGKAPKRLIYKVSNRDSGVPSRFSGSGSGTDFTLTISSLQPEDFATYYCMQGAHWPLTFGQGTKVEIKR
notes: Human Igγ1 / human kappa constant regions; also called fully human anti-human TLR2 antibody; fully human antibody of 31-5F5-2F3.m1
For B1, in test [1], the “IC50 value against Pam2CSK4-induced AP production in THP1-xBlue cells” value is 0.0977 nM and 0.13 nM. Further, the Kd in test [2] stood at 0.0885 nM.

B2: fully human ICU-1-Igγ1-LAsh (bispecific antibody, human IgG1, kappa, L234A L235A)
heavy: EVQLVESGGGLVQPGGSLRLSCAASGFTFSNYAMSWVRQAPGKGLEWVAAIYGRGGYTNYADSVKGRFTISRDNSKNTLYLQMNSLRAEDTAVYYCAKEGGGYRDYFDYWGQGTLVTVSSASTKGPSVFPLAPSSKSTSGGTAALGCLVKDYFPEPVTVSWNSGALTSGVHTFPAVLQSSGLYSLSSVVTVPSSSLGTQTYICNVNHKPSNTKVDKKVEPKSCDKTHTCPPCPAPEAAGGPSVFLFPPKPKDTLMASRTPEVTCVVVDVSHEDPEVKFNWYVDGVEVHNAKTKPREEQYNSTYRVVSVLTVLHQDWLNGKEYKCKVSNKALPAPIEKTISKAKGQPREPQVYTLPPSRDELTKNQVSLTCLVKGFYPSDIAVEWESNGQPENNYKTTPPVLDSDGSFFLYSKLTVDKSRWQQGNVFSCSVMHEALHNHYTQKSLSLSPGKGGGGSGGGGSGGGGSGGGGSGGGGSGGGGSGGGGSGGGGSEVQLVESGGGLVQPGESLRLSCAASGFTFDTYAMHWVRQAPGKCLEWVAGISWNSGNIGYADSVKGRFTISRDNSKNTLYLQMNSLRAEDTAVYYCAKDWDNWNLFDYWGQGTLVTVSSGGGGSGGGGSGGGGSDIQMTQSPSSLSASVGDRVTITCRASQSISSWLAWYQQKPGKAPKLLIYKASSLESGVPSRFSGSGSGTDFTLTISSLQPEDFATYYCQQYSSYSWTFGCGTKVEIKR
light: DVQMTQSPSSLSASVGDRVTITCRSSQSLVFSDGNTYLNWFQQKPGKAPKRLIYKVSNRDSGVPSRFSGSGSGTDFTLTISSLQPEDFATYYCMQGAHWPLTFGQGTKVEIKRTVAAPSVFIFPPSDEQLKSGTASVVCLLNNFYPREAKVQWKVDNALQSGNSQESVTEQDSKDSTYSLSSTLTLSKADYEKHKVYACEVTHQGLSSPVTKSFNRGEC
notes: As fully human ICU-1-Igγ1, but with L234A, L235A and I253A (EU index) in the human Igγ1 constant region; also called IgG(TLR2)-scFv(TLR4) bispecific antibody with L234A, L235A and I253A
The EC50 is the concentration giving half of the maximal effect. Low readings indicate an effect from little substance, high ones a need for much substance. For the molecule B2, the “IC50 value, killed Pseudomonas aeruginosa-induced TNFα production on normal human peripheral blood mononuclear cells” value in test [3] and in test [4] was 0.0172 nM in each case. The EC50 was 0.21 nM in test [5] and 0.522 nM in test [6].

B3: fully human ICU-1-Igγ1 (bispecific antibody, human IgG1, kappa)
heavy: not shown
light: DVQMTQSPSSLSASVGDRVTITCRSSQSLVFSDGNTYLNWFQQKPGKAPKRLIYKVSNRDSGVPSRFSGSGSGTDFTLTISSLQPEDFATYYCMQGAHWPLTFGQGTKVEIKRTVAAPSVFIFPPSDEQLKSGTASVVCLLNNFYPREAKVQWKVDNALQSGNSQESVTEQDSKDSTYSLSSTLTLSKADYEKHKVYACEVTHQGLSSPVTKSFNRGEC
notes: Tetravalent IgG-scFv: an anti-TLR4 scFv is joined by a GS linker to the C terminal of each heavy chain of the anti-TLR2 IgG1; also called IgG(TLR2)-scFv(TLR4) bispecific antibody
Regarding B3, the “IC50 value, killed Pseudomonas aeruginosa-induced TNFα production on normal human peripheral blood mononuclear cells” value in test [3] and in test [4] was 0.04 nM each time. In addition, the results for the concentration for a half-maximal effect (EC50) in test [5] and in test [6] were 0.15 nM and 0.493 nM, respectively.
